Results: patent US9480726B2, “Leukotoxin E/D as a new anti-inflammatory agent and microbicide” (New York University, priority 2011, dated 2016)

How the values were obtained:
CCR5^+ Jurkat cells [1] = assay: Blocking of LukE/D cytotoxicity by CCR5 antagonists, antibodies and ligands, CellTiter; assay type: cell-based, human; settings: CCR5^+ Jurkat preincubated 30 minutes, then LukE/D, read 1 hour post-intoxication
Method: One hour post-intoxication, the viability of the cells was determined by CellTiter. […] One hour post-intoxication, the viability of the cells was determined by CellTiter. Results represent the average of triplicate samples±S.D.
To determine if targeting CCR5 blocks LukE/D, the effect of several CCR5 antagonist and ligands on the ability of LukE/D to kill CCR5^+ cells was evaluated. […] In addition, the potential of monoclonal antibodies directed against CCR5 to protect cells from LukE/D cytotoxicity was also evaluated following the experimental protocol described for the CCR5 antagonist. […] Lastly, the potential inhibitory effect of natural ligands of CCR5 was also evaluated. […] Collectively, these findings indicate that the potent cytotoxic activity of LukE/D could be blocked by employing CCR5 antagonist and/or ligands.

[2] = system: primary human dendritic cells; assay: LukE/D cytotoxicity towards primary phagocytes, percent death by flow cytometry; settings: 1 hour post-intoxication
Method: (§1) Cells were then stained with an anti-CCR5 antibody and a viability dye prior analysis by flow cytometry. […] One hour post-intoxication, the percent death was determined by flow cytometry.
(§2) In addition to T lymphocytes, the cytotoxic activity of LukE/D towards primary human macrophages and dendritic cells was also evaluated.

[3] = system: primary human macrophages; assay: as above; settings: 1 hour post-intoxication
Method: as §1, §2

Jurkat cells = assay: LukE/D cytotoxicity, cell viability by CellTiter; assay type: cell-based, human; settings: 1 hour post-intoxication
Method: (§3) Cytotoxicity was determined by a cell viability assay where indicated human immune cells lines were intoxicated with different concentrations of an equimolar mixture of LukE+LukD (LukE/D). Cell viability was monitored 1 hour post-intoxication using CellTiter, where cells treated with medium were set at 100% viable. Results represent the average of triplicate samples±S.D. FIG. 2B depicts that LukE/D kills Hut cell but not other human T lymphocyte-like cell lines. Indicated cell lines were intoxicated with different concentrations of an equimolar mixture of LukE+LukD (LukE/D) and cell viability monitored as in FIG. 2A. Results represent the average of triplicate samples±S.D.
(§4) One mechanism by which LukE/D could be blocked is by inhibiting the interaction of the toxin with its receptor. As an initial strategy to understand how LukE/D interact with host cells, a collection of human immune cell lines were incubated (“intoxicated”) with different concentrations of either individual subunits (i.e., LukE or LukD) or an equimolar mixture of LukE+LukD (LukE/D). […] Upon further investigation, it was discovered that the Hut cells employed the experiments described above have been engineered to over-express the CC-chemokine receptor 5 (CCR5), a receptor for the chemokines MIP-1α, MIP-1β, and RANTES.

H9 = assay: LukE/D cytotoxicity, cell viability by CellTiter; assay type: cell-based, human; settings: H9 lymphocyte cell line
Method: as §3, §4

[4] = system: Hut cells (T lymphocyte-like cells); assay: LukE/D cytotoxicity, cell viability by CellTiter; assay type: cell-based, human; settings: Hut cells (over-express CCR5), 1 hour post-intoxication
Method: as §3, §4

PM1 = assay: LukE/D cytotoxicity, cell viability by CellTiter; assay type: cell-based, human; settings: PM1 lymphocyte cell line
Method: as §3, §4

CCR5^+ Jurkat = assay: LukE/D cytotoxicity towards CCR5-transduced cells, CellTiter; assay type: cell-based, human; settings: Jurkat transduced with CCR5 cDNA, 1 hour post-intoxication
Description: FIG. 3 illustrates that the chemokine receptor CCR5 is necessary and sufficient to renders mammalian cells susceptible to LukE/D mediated cytotoxicity. Parental Jurkat (top, left) and GHOST cells (bottom, left) or these cells transduced with a CCR5 cDNA (Jurkat CCR5^+, top/right; GHOST CCR5^+, bottom/right), were intoxicated with LukE, LukD, or equimolar mixture of LukE+LukD (LukE/D). One hour post-intoxication cell viability was monitored with CellTiter, where cells treated with medium were set at 100% viable. Results represent the average of triplicate samples±S.D.
To directly determine the contribution of CCR5 for the ability of LukE/D to target and kill host cells, CCR5 was introduced into Jurkat cells by viral transduction of the CCR5 cDNA resulting in CCR5^+ Jurkat. Jurkat and CCR5^+ Jurkat cells were subsequently intoxicated with different concentrations of either individual subunits (i.e., LukE or LukD) or equimolar mixtures of LukE+LukD (LukE/D).

[5] = system: Primary human T lymphocytes from CCR5^+ donor; assay: LukE/D intoxication of primary T lymphocytes, viability by flow cytometry; assay type: cell-based; settings: 5.4% in media treated cells
Method: as §1
(§5) If CCR5 is the receptor of LukE/D, then primary host cells that their surfaces are decorated with CCR5 (e.g., T lymphocytes, macrophages, natural killer cells, dendritic cells, etc.) will be susceptible to LukE/D mediated cell death. To investigate this in more detail, primary human peripheral blood mononuclear cells (PBMC) were isolated from a wild type CCR5 (CCR5^+) donor and a Δ32CCR5 (CCR5^−) donor and the T lymphocytes expanded followed by intoxication with LukE/D and the viability of the cells determined by flow cytometry.

CCR5^+ Jurkat cells [6] = assay: LukE/D pore formation, ethidium bromide incorporation and microscopy; assay type: cell-based, human
Method: Binding of the toxin to the plasma membrane of the cells was monitored via flow cytometry. […] Pore formation was measured over-time by monitoring ethidium bromide incorporation. […] Intoxicated cells were monitored by light (top panels) and by fluorescence microscopy to determine ethidium bromide uptake. Representative images are shown.

[7] = system: T lymphocytes from the Δ32CCR5 donor; assay: LukE/D intoxication of primary T lymphocytes, viability by flow cytometry; settings: T lymphocytes of Δ32CCR5 (CCR5^−) donor
Method: as §1, §5

CCR5^+ Jurkat cells [8] = assay: Binding of GFP-fused LukE/D toxin to plasma membrane, flow cytometry; set-up: species or system human
Method: (§6) To elucidate the mechanism by which LukE/D utilizes CCR5 to target and kill host cells, Jurkat (CCR5^−) and CCR5^+ Jurkat (CCR5^+) cells were incubated with a GFP-fused LukE/D toxin (^GFPLukE/D) and binding of the fluorescent toxin to the plasma membrane of the cells monitored by flow cytometry.

[9] = system: THP1 cells (human monocytes); assay: LukE/D cytotoxicity, cell viability by CellTiter; assay type: cell-based; settings: 1 hour post-intoxication
Method: as §3, §4

[10] = system: parental CCR5^− Jurkat cells; assay: Binding of GFP-fused LukE/D toxin to plasma membrane, flow cytometry; set-up: species or system human
Method: as §6

Cc1ccc(-c2ccc3c(c2)C=C(C(=O)Nc2ccc(C[N+](C)(C)C4CCOCC4)cc2)CCC3)cc1.[Cl-] [TAK-779]
blocking of LukE/D mediated cytotoxicity (CCR5^+ Jurkat cells [1]): potently blocked

COC[C@@H](c1ccc(C(F)(F)F)cc1)N1CCN(C2(C)CCN(C(=O)c3c(C)ncnc3C)CC2)C[C@@H]1C [Vicriviroc]
blocking of LukE/D mediated cytotoxicity (CCR5^+ Jurkat cells [1]): potently blocked

LukD: S. aureus Leukocidin D protein subunit, SEQ ID NOs: 12-22
cytotoxic activity (killing) [2]: not LukD potently killed
cytotoxic activity (killing) [3]: not LukD potently killed

LukE/D
cytotoxicity (Jurkat cells): not towards Jurkat cells
cytotoxicity (H9): only the Hut cells were susceptible
cytotoxicity [4]: exhibits cytotoxicity
cytotoxicity (PM1): only the Hut cells were susceptible
LukE/D mediated toxicity (CCR5^+ Jurkat): susceptible
cell death [5]: 34%
cytotoxic activity (killing) [2]: potently killed
cytotoxic activity (killing) [3]: potently killed
pore formation in plasma membrane (CCR5^+ Jurkat cells [6]; ethidium bromide incorporation over time): forms pores
cell swelling (CCR5^+ Jurkat cells [6]; light and fluorescence microscopy): associated with cell swelling
LukE/D mediated cytotoxicity [7]: highly refractory
binding of toxin to plasma membrane (CCR5^+ Jurkat cells [8]; GFP-fused LukE/D, CCR5^+ Jurkat): binds
cytotoxicity [9]: exhibits cytotoxicity
binding of toxin to plasma membrane [10]: not to the parental CCR5^− Jurkat cells

Maraviroc [reference compound]
blocking of LukE/D mediated pore formation (CCR5^+ Jurkat cells [6]; pre-incubation with Maraviroc, ethidium bromide incorporation): potently blocked
blocking of LukE/D cell swelling (CCR5^+ Jurkat cells [6]; pre-incubation with Maraviroc, microscopy): fully blocked
inhibition of LukE/D binding to cells (CCR5^+ Jurkat cells [8]; CCR5^+ Jurkat pre-incubated with Maraviroc, then GFP-labeled LukE/D): potently inhibited

RANTES: natural ligand (chemokine) of CCR5
blocking of LukE/D mediated cytotoxicity (CCR5^+ Jurkat cells [1]): potently inhibit

B1: MIP-1β: natural ligand (chemokine) of CCR5 (protein)
chain: APMGSDPPTACCFSYTARKLPRNFVVDYYETSSLCSQPAVVFQTKRSKQVCADPSESWVQEYVYDLELN
blocking of LukE/D mediated cytotoxicity (CCR5^+ Jurkat cells [1]): potently inhibit
